System: MS2 coat protein
Test: apparent KD of MS2 coat protein; designed switch direction (-1 OFF switch, 1 ON switch): 1; higher = weaker reporter binding
In short: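 Apparent KD, taken as the median over clusters for each design, was obtained by curve-fitting normalised cluster fluorescence. Designed RNA switches had been transcribed on Illumina chips by stalled E. coli RNA polymerase and titrated with SNAP-549-labelled MS2 coat protein, doubling from 0.7 or 1.5 nM to 3 µM.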

[1] = input ligand: microRNA oligo, concentration not stated
[2] = Eterna round: R95, input ligand: FMN 200 uM
[3] = Eterna round: R95, input ligand: microRNA oligo, concentration not stated
[4] = Eterna round: R95, input ligand: none

Sequence	apparent KD of MS2 coat protein [1] [nM]	apparent KD of MS2 coat protein (input ligand: FMN 200 uM) [nM]	apparent KD of MS2 coat protein (input ligand: none) [nM]	apparent KD of MS2 coat protein [2] [nM]	apparent KD of MS2 coat protein [3] [nM]	apparent KD of MS2 coat protein [4] [nM]
UUUACAUUACGAGGAUAUCAUUUAUUUCAUGUUUGAGAAGGCGUUUUUUUUAUUACCUUACAUGAGGAUCACCCAUGUUUCUUU [JR_SSNG1_Sub043] (Eterna round: R96, puzzle: Same State NG 1)	26.2					
GCCAACUAAUGAGGAUAUGGCACCUUAUUGGUGCCAGAAGGCAUGUCAAUUGACAUGAGGAUCACCCAUGUAUUAUAGUUGGCG [salish99_SSNG1_r04_601] (Eterna round: R96, puzzle: Same State NG 1)	438					
GUGGUCAGACAUGAGGAUCACCCAUGUGGAAUAAAUAACGAACAGGAUAUGCAAUAUAGGAUAUAGUAGAAGGGUUGAUUGGUG (Eterna round: R96, puzzle: Same State NG 3)	82.4					
GAGAGAGGGUGAGGAUAUUUAGUGAUAAUGAUAAAAGAAGGCACAGACAUGAGGAUCACCCAUGUGGGAAUAAUCCAGAGAGAG [Parity 4 - Jieux - Same State NG 1] (Eterna round: R96, puzzle: Same State NG 1)	238					
GGGAGAGCCGCAGGAUAUGGUGAGGAUUACCCACUAGAAGGGUGGACAUGAGAAUCGAACAUGAGGAUCACCCAUGUUCUGAGG (Eterna round: R96, puzzle: Same State NG 1)	219	200	386			
GAAAAACAUGAGGAUCACCCAUGUGUAAACAAGGGAGGAUAUACAAAGACGUAAGUCAAAGUAGAAGGCCUAAAAG [Garnet 38] (Eterna round: R96, puzzle: Same State 1)	54.3	19.6	71.8			
GUUACAUGAGGAUCACCCAUGUGUGUGUGGGAGUGAGUGGCUUAGGAUAUCUAUGAUUUUAGUUAAGAGAAGGGAGAUUGUUGU [SS-NG3-LRO05] (Eterna round: R96, puzzle: Same State NG 3)	276	554	328			
UUGGUUCUCGUAGGAUAUGUAGGAUAUGCCUACAUGAGGAUCACCCAUGUUCGCAUGGCAGAAGGACAGAAGGACGAUCACCAU [pwkr ssNG2 2FMN + 1F5.17] (Eterna round: R96, puzzle: Same State NG 2)	136					
GGGAGAGGCGCAGGAUAUGGUGAGGAUCACCCACUAGAAGGGUGCACAUGAGAAUCGGACAUGAGGAUCACCCAUGUUUGGCGC (Eterna round: R96, puzzle: Same State NG 1)	121	393	565			
UACCAACAUAUAGAACAAGCGUGCUCGUCACAUGAGGAUCACCCAUGUCUAAACGCUGUACCUACAUCCUCAGCGCC [Eddiso] (puzzle: Sensor for hsa-mir-208a)				23.3	24.6	22.8
GCAGGACGAUAAUAUAUCUCACAUGAGGAUCACCCAUGUCGUGAGGAUAUGGAUCCUAAUUGGAUCCAGAAGGCAUGGUCCUGC [Fiskers NG3ss - 31] (Eterna round: R96, puzzle: Same State NG 3)	14.2	18.5	20.7			
UUACUCAUGUAAGGAUAUGCAGCCGAAACGGCUGCAGAAGGUACUAUAAUACAUGAGGAUCACCCAUGUCAAAAUAAUUUUUAC [Mat - Same State NG 1 - JL mod - D71] (Eterna round: R96, puzzle: Same State NG 1)	21.7	44.9	27.5			
AGCCGAGACACAGGAUAUACAUGUAUACAUGAGGAUCACCCAUGUAGCAACACGUGGUAGUGAUUGUAGAAGGGUGCUCGGCGC [Omei SS(NG)2 Cv13] (Eterna round: R96, puzzle: Same State NG 2)	32	20.4	36.8			
AGUCCAGCAUGAGCUGGACAAAAGCAUGUACAUGAGGAUCACCCAUGUUCAUGUACAAGCUUUUUGCUCGUCUUAAG [Mat - hsa-mir-208a - Mod of JL - 63] (puzzle: Sensor for hsa-mir-208a)				568	18	802
AACAAUCUAUCUGAGGAUAUCAUGAAAUAAACAUGAGGAUCACCCAUGUGCAGGAAAACUUCAUAUGAGAAGGCAGAUAGAUUGA [salish99_ss2_r3_045] (puzzle: Same State 2)				17.5	27.7	26.4
GGAGCCAAGGCAGGAUAUUCAUAUUAAAACAUGAGGAUCACCCAUGUAAAGGCCAGAAGGCCUUGGGAGAAGGGCCAUGGCUCG [Xeonanis - 13 mod1] (Eterna round: R96, puzzle: Same State NG 2)	37.6	19.9	49			
GGUCCAGCCUGAGCUGGACAAAAGCAUGUACAUGAGGAUCACCCAUGUUCAUGUACAAGCUUUUUGCUCGUCUUAGC [salish99_208a_r3_071] (puzzle: Sensor for hsa-mir-208a)				534	12.7	468
GCGGAACGGGCCGACAUGAGGAUCACCCAUGUGCCCUCAUGUAAGGAUAUCGGGAAGAAGAAAACCGAGAAGGUACGGUGACGC [AK SSNG3-V2-30] (Eterna round: R96, puzzle: Same State NG 3)	51.5	945	137			
AUAAAACAUGAGGAUCACCCAUGUCAACAAAGUCGAGGAUAUGGGCAAAUAAAAUAAGAACCAGAAGGCGUAUAAU [salish99_ss1_r3_034] (puzzle: Same State 1)					341	
GUGGUCAGACAUGAGGAUCACCCAUGUGGAAUAAAUAACAGACAGGAUAUCCAAUAUAGGAUAUAGGAGAAGGGUCGAUUGGUG (Eterna round: R96, puzzle: Same State NG 3)	56.9					
GAGUGGUUGGGAGGAUAUGCAUUGUUAUUAAAUGCAGAAGGUUUUAACAUGAGGAUCACCCAUGUAGGACUAUUCCUGUGUUUC [Parity 68 - Jieux - Same State NG 1] (Eterna round: R96, puzzle: Same State NG 1)	12.6					
GUACAGAUUAUAGGAUAUCACGUCGUUUAGACGUGAGAAGGAUAAUCACACAUGAAUAUUAAUACAUGAGGAUCACCCAUGUAC [SSNG1/17-A3] (Eterna round: R96, puzzle: Same State NG 1)	17.5	18.4	18.5			
AGAGCCGGCACUGAGGAUAUUCAUAAUAAAACAUGAGGAUCACCCAUGUAGGCCAGAAGGCCUUGGGAGAAGGCAGGUCGGCUCU [Mat - Same State 2 - Mod of UCT - D69] (puzzle: Same State 2)				17.7	168	220
CCGGUUUAUGGAGGAUAUGGAGCCUUAUUGGCUCCAGAAGGCUAAACAUGAGGAUCACCCAUGUUACCGGCGGUCAAUAGACCG [Eli NG1ss - 60] (Eterna round: R96, puzzle: Same State NG 1)	20.5	11.8	23.1			
CAAGGGUACGGAUUAGUACAUGAGGAUCACCCAUGUAUCCGACAGGAUAUCAUGUAAGAAGCCAGUGAGAAGGGUCUAGUCCAA [Eternabot solution 43] (Eterna round: R96, puzzle: Same State NG 3)	205	367	460			
GCAGUACUAGCAGAGGAUAUGUCGGUAACGACAUGAGGAUCACCCAUGUGUACGAAAGUGCUCAGACAGAAGGCUGAGUACUGCU [Same State 2 - Hyphema v.1] (puzzle: Same State 2)				17.8	58.4	78.4
ACAUGAAAUUGAGGAUAUUUUGUACCUACAUGUGACAUGAGGAUCACCCAUGUGGUAAGUAUAAGAGAGAAGGCAAAGAUAUGU [Equivalence 6 - Jieux - Same State NG 2] (Eterna round: R96, puzzle: Same State NG 2)	29.2	30	45.1			
AGCUAUCGAAAACGAUAGCAUAAGCAUGUACAUGAGGAUCACCCAUGUCAUGUACAAGCUUUUUGCUCGUCUUAAAA [JL zipper 27] (Eterna round: R96, puzzle: Sensor for hsa-mir-208a)	14.3	411	426			
GCUCGGAUGAUGACCCACAUGAGGAUCACCCAUGUGCGUGGGCAGGAUAUCUAGAUUAAGGAUGUAGAGAAGGGUCUACCGAGC [SameState NG3 #31] (Eterna round: R96, puzzle: Same State NG 3)	318	964	407			

From the supplement of paper PMC9170038
